In US20220062145A1 (LIPOTRUE S L, published 2022):

Target: elastase enzyme
Experiment: cell-based or functional assay

Ac-ALHKVK-NH2 [Ac-Ala-Leu-His-Lys-Val-Lys-NH2]
percentage of elastase inhibition with regard to the positive control (PMSF = 100%), absorbance at 405 nm: ~39 % of positive control
